Experimental data published in article PMC2195994 (The Journal of Cell Biology, 2001).

T1: GST–IRS-58 (1–432) (human, UniProt Q9UQB8 1-432)
T1 sequence (looked up): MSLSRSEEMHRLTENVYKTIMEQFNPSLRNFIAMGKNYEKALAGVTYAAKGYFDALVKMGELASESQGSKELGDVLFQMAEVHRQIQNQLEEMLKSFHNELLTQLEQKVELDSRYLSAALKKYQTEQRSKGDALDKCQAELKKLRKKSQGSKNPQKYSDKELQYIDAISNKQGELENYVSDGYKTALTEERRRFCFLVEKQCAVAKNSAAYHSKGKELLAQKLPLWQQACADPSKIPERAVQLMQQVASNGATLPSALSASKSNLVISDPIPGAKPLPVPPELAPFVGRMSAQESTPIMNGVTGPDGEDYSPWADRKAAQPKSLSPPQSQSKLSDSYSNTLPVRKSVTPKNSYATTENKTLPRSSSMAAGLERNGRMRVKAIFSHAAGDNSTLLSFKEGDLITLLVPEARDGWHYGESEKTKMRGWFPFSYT

T2: GST–IRS-58 (1–358) (human, UniProt Q9UQB8 1-358)
T2 sequence (looked up): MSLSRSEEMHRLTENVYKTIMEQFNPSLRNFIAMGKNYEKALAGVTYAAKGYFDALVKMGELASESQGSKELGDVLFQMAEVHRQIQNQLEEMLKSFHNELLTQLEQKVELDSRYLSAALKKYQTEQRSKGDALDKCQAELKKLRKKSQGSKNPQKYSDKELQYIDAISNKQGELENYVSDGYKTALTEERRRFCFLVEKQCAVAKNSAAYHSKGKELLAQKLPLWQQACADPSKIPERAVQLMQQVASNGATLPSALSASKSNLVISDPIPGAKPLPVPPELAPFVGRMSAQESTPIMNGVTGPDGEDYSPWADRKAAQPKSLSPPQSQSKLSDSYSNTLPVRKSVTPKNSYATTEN

B1: Cdc42HsQ61L (natural protein)
chain: not shown
B2: IRS-58–GST fusion protein (202–305 amino acid residues) (domain or fragment, human, UniProt Q9UQB8 202-305, looked up)
chain: CAVAKNSAAYHSKGKELLAQKLPLWQQACADPSKIPERAVQLMQQVASNGATLPSALSASKSNLVISDPIPGAKPLPVPPELAPFVGRMSAQESTPIMNGVTGP

Assays:
Assay in all cases: far-Western, overlay or dot blot
GST–IRS-58 (1–432) = biological target: T1, GST–IRS-58 (1–432)
GST–IRS-58 (1–358) = biological target: T2, GST–IRS-58 (1–358)
Cdc42HsQ61L = biological target: B1
Cdc42Hs L61C40 = Cdc42Hs L61C40 (human, UniProt P60953-1 1-191, L61 | C40)

binding result (GST–IRS-58 (1–432)) | binding result (GST–IRS-58 (1–358)) | binding result (Cdc42HsQ61L) | binding result (Cdc42Hs L61C40) | Binder
binds | binds | – | – | B1
– | – | binds | binds | B2
